Assay: soluble on expression in E. coli; label from the status in PepcDB or PDB records

Sequence	soluble on expression in E. coli
MQLQKLVNMFGGDLTRRYGQKVHKLTLHGGFSCPNRDGTIGRGGCTFCNVASFADEAQQHRSIAEQLAHQANLVNRAKRYLAYFQAYTSTFAEVQVLRSMYQQAVSQANIVGLCVGTRPDCVPDAVLDLLCEYKDQGYEVWLELGLQTAHDKTLHRINRGHDFACYQRTTQLARQRGLKVCSHLIVGLPGEGQAECLQTLERVVETGVDGIKLHPLHIVKGSIMAKAWEAGRLNGIELEDYTLTAGEMIRHTPPEVIYHRISASARRPTLLAPLWCENRWTGMVELDRYLNEHGVQGSALGRPWLPPTE	soluble
MPREESESPLLVYEDPRHTPYTPFKYARKDEEERSSGGGKSPPKKAPKAQDRMSLRDKFEAAPTTKKRKTAQDPADELLQAIKPLFNQVKKEMADQLADQLGRFNEQLDMAVNSFSDEIVKLKADHALAEKNVDTYAQKVSGMFQRADMMSANVQEQRTQQAEDNRMASKARDRIIYDIAQVATNMKTMSETIAKIDAREEQAAQKQAERHTPQGGQGSLEPALKCPLCKRHHAPENCTIIRNGLDRREEAEKIKMCIQCLEVGVTNDDWVHEGCPKEKEQCTRCTKYMKPGEIAQTHHNATFCLMLTSKQYKLERKGSPSDRDYSPKGRRGPIRSRHNRYGG	not soluble
MGSDKIHHHHHHMALLFSGGTMSQVQSGILPEHCRAAIWIEANVKGEVDALRAASKTFADKLATFEAKFPDAHLGAVVAFGNNTWRALSGGVGAEELKDFPGYGKGLAPTTQFDVLIHILSLRHDVNFSVAQAAMEAFGDCIEVKEEIHGFRWVEERDLSGFVDGTENPAGEETRREVAVIKDGVDAGGSYVFVQRWEHNLKQLNRMSVHDQEMVIGRTKEANEEIDGDERPETSHLTRVDLKEDGKGLKIVRQSLPYGTASGTHGLYFCAYCARLHNIEQQLLSMFGDTDGKRDAMLRFTKPVTGGYYFAPSLDKLMAL	not soluble
MGKTLVVGAGGVSHAAVHKMAMNSDIFTEITLASRTKAKCDAIAASVKERTGVTIQTAALDAMDVAATVALIKETGAEILVNLALPYQDLKLMDACLEAGCHYLDTANYEPEDVAKFEYHWQWAYQDKFKEAGLTAILGSGFDPGVTSVFATWLKKHKLATIRQIDVLDA	not soluble
MMARVEKLRELMKENNLQGFLVTSPYNLRYLTNFTGTTGLAMITLDKAFFVTDFRYTEQAAEQATGFTIVKNTGHIFDEVADLAERLQLDNLAFEETQVSFADYSLLEEILPCELVPVMGLIEELREVKDEEEVAIIEKACAIADQGFAFVLEMIKPGMTEIEVANQLDFFMRSKGASGVSFETIVASGLRSAMPHGVASHKVIEKGELITLDFGCYYEGYVSDMTRTFAIGSIQPKLKEIYDIVLEAQLKVLAEAKPGLTGIQLDAIARDHIASYGYGDAFGHSTGHGIGLEIHEGPNVSFRADKQFVPGNVITDEPGIYLPGIGGVRIEDDLLITAEGNRVLTHAPKELIIL	not soluble
MKTVMLMLTSLLMAGCSVLGKREAAEPPYELLKHDGAFEVRRYGPMVIAETILDEKSYSAASGKGFNRLAGYIFGKNRSKTSISMTAPVLQERSSEKISMTAPVLQQPQKGGWSMAFVLPEGFTLQSAPEPLDPEVKLRELPPSTIAVVTFSGLHSAANLEKYSRQLQAWLKKQGYRALSEPKLASYDPPWTIPFLRRNEVQIRIEPDHGESGKELEHHHHHH	soluble
MNNEFLQTEEDIVRMLRTVYDPEIPVNVYDLGLIYNVDVGADGFVTVTMTLTAPNCPAADFIIEDVRMKVESVKGVKGVKIDLTFEPEWNKDMMSEEAMLELGFL	not soluble
MSKRRVVVTGMGMLSPVGNTVESSWKALLAGQSGIVNIEHFDTTNFSTRFAGLVKGFDCEQYMSKKDARKMDLFIQYGIAAGIQALEDSGLEVNEENAARIGVAIGSGIGGLELIETGHQALIEKGPRKVSPFFVPSTIVNMIAGNLSIMRGLRGPNIAISTACTTGLHNIGHAARMIAYGDADAMVAGGAEKASTPLGMAGFGAAKALSTRNDEPQKASRPWDKDRDGFVLGDGAGIMVLEEYEHAKARGAKIYAEVVGFGMSGDAYHMTSPSEDGSGGALAMEAAMRDAGVTGEQIGYVNAHGTSTPAGDVAEVKGIKRALGEAGTKQVLVSSTKSMTGHLLGAAGSVEAIITVMSLVDQMVPPTINLDNPEEGLGVDLVPHVARKVESMEYAMCNSFGFGGTNGSLIFKRM	not soluble
MGSDKIHHHHHHMAAPAGGGGSAVSVLAPNGRRHTVKVTPSTVLLQVLEDTCRRQDFNPSEYDLKFQRTVLDLSLQWRFANLPNNAKLEMVPVSRSREGPENIVRIAFQLDDGSRLQDAFCSRQTLWELLSHFAQTRERLQQLGEKTPVCVYMRNEVTGRAALQNTTLQSLGLTGGSATIRFVIKQCDTAGKQESIAVRSKAPGSPVSSLSADQASSSTLLPLNSGEFSRGDLNHEGDANTSGTGLEGGPKPTDAQTKQSTSEPASAPFVPFSGGGQRLGGPSASLRPLTSPSANSSKSFSGPGGPSKPKKPKPGEEPQQEPEPPVDRDPVVYHPDLEDLLQPWPAEVPDEFFEVTVDDVRRRLAQLKSERKRLEEAPLVTKAFREAQMKEKLERYPKVALRVLFPDRYILQGFFRPSETVGDLRDFVRSHLGNPELSFYLFIAPPKMVLDDHTLTLFQANLFPAALVHFGAEEPTGLYLEPGLLEHTVSPSTADVLVARCMSRASGSPPLLPAPDPVSLESEPIAEDGALGPPEPIQGTAQPVKRSLGKVPKWLKLPASKR	not soluble
MNELLQDRVPPQNIEAEQAVLGSIFLDADVLIEAMEYVEPKDFYRRSHQLIFQTMMTLSDRNEAIDVVTIKDRLEQENLLEDVGGLSYLSDLALAVPTAANVIYYAKIVEQKSLLRNLIQTATEIVTKGFEQGEDVESILDDAERSILEVSEKRNRSGFLSISDVLNTTIANIDQLYQNDEEITGLPTGYQALDKMTAGLQAEELIILAARPAVGKTAFALNIAQNVGTKTDKAVAIFSLEMGAESLVNRMLCAEGSIEASHLRTGQLSEEEWQNLIIAMGSLSRANIYIDDTPGIKITEIRAKCRKLAQEKGNLGLILIDYLQLIEGTGKENRQQEVSDISRQLKKLAKELKVPVIALSQLSRGVEQRQDKRPVLSDIRESGSIEQDADIVAFLYRDDYYDRGEGEDGDHEPPEVDNVVEVIIEKNRSGARGTVELLFIKEYNKFSSLSPRTEF	not soluble
MPSLFKTMAFQLKTERLELSMWEESDSVWLSKLIGERGVDIPAVDSVRNRLIEMRKKADENGISLLTIRRRDEGDFIGYCGLIIGRSTLEEPEIAYELFRSAHGKGYATEAASVVLDAAIATGRQRLWSTVGAWNIASLRVLEKIGFKRHHSTWDDERGEIVWNVRDL	not soluble
MIAVQRAVESRSIPPKAIVPVYVATSRMIQNNYSQPYGAERSNKVHYNRVDVGIPQKHVKGVVETNAYKPTHDKYFAAVALQKYDNKEQFKQQLNADLEKKTPGKREIFLFIHGYNNNFADGTFRTAQFTYDYSLNVVTVHYSWPSAGSVPLYIYDRDSANFARDGLIELLTLISETKADQISVIAHSMGNFVIMEAFRTLALQGKYKPIQRITSFLMAAPDIDIDVFERQLNDIKKLPQPTAILVSRADKALAVSGRLTGGHHRVGDGSDIEMLRKNGIAVLDFSNVDGGAHNVFASSPTLMALAREGSLASTIMQGTELSPSQALLADSSSVLEKTTHLILYTPLRLLSPLTRQ	not soluble
MPVNNENLTSVLDARPFELSEEQKSPLFKANLLAELVHHYQCNEMYRKFCQKNKFDPLVFDGEVADIPPIPVHIFKAIGHKLSSVSDDTIKAKLQSSATSGVPSTILLDKVTARRQTRAMARVMQEVLGPKRRPFCIMDIDPTSPNATNLGARIAAVKGYLNFASTSKYFIDADSPSAPLEFLEQKFVEHLNSLASEEPLIIFGFTFVLYHTVFKTLKDKGISFQLPKGSQVIHIGGWKKLESEKVDKITFNRDIASVLGISPDDVVDIYGFTEQMGLNYPDCKAGWKHIHAYSDVIIRDESNLEVCGPGKVGLLEFVSPLPHSYPGNVVLTDDLGVIEESLCECGKAGKRFKVIGRAKKAEVRGCGDVMSEKLTKKPSYKPLSQQEERLTIYHSPIFLDDTMLEHHHHHH	soluble
GHMGLEPYEISTLFEQRQAMLQSIKEGVVAVDDRGEVTLINDAAQELLNYRKSQDDEKLSTLSHSWSQVVDVSEVLRDGTPRRDEEITIKDRLLLINTVPVRSNGVIIGAISTFRDKT	soluble
MRTLRIGIVGLGGIAQKAWLPVLTNTAGWTLQGAWSPSRDKALRICESWRIPYVDSLANLASSCDAVFVHSSTASHYAVVSELLNAGVHVCVDKPLAENLRDAERLVALAAQKKLTLMVGFNRRFAPLYRELKTRLGTAASLRMDKHRTDSVGPHDLRFTLLDDYLHVVDTALWLAGGEARLASGTLLTSESGEMCYAEHHFSADKLQITTSMHRRAGSQRESVQAVTDGGLYDVTDMREWREERGQGILIKPIPSWQTTLEQRGFVGCARHFIDCVQNQTVPETAGEQAILAQRVVEALWRDAISE	not soluble
MSGEEKEKVKILHVANISTSATRDHIYNMFNYLGKIQDLKVYPSEGNITANTLLKTAFIKFDDERCVEVAQHLTNTVVIDCAIVCLPYPNPVIPDEESFFNSGGSTTAGQRQLPPHVTNKIQESDDGSALLITVDPTLEQLGLPAYPPLPADTDSAKVEEIRRTVYVGNLPKGVDGNEVLELFNMYFGEVMYARMASGPDALPCAYAYVEFSQQASVCNALQNDGFEFKERPLKIQHSRVAIIKPQAKTDEQALGEIEEAIRMGRNGDDRDRRRSRSPRRRRSPSPRRRRDSRDRDRDRDRDRRRSRDRRSRSRDRDRDRDRKRSRSRDRKRRSRSRDNKDRDRKRSRSRDRRRRSKSRDRKRERSRSRSKDRKRDKKRSRSRSPEKRRDKEDRKTEKKENENESSLREKLLEKKAARKDSSDDEWEEKPTPTNGEVKNEEIGNGDVVMASE	soluble
MSLRESMRIELELQTDNFTVIPYNHQYYLASAIYNKIHSANPAYAKRLHNYQKFKFFTFSLLQIRKRVIRKEGIETIDGKAYLYISSPNNEFIENFVAGLLEDGKLRVGNVEFFVRKAKILPIPKKFNILKTISPIYLKTMIETEDGLKTYDLLPNNSKFYENLKNNLKKKYEAFYNEKCDMNFEFEVLKFRPKRMRIKNDIYCRCSEMVFKVWGDYDLIKFGYECGFGEKNSMGFGMVVNVEDKNQKNKKLKTKIEGHHHHHH	soluble
MCGKFTLFSEFDDIIEQFNIDQFLPEGEYHPSYNVAPSQNILTIINDGSNNRLGKLRWGLIPPCAKDEKIGYKMINARAETLAEKPSFRKPLGSKRCIIPADSFYEWKRLDPKTKIPMRIKLKSSNLFAFAGLYEKWNTLEGNLLYTCTIITIKPSELMEDIHDRMPVILTDENKKEWLNPKNTDPDYLQSLLLPYDADDMEAYQVSSLVNSPELIESHLEHHHHHH	not soluble
MESFRFDPAGNLLDNAPAPDGHQNDSLLGNLLSQYAGRHYRYDSRGNLVEKRVNGSLTRLEWDSHSRLSRLIAPDGQRTDYHYDPLGRRIAKISQGQATLYGWDGDVLAFETRDEEAVHYLFEPDSFVPLAQVHTDAIRGVKVPAWSQHHPYDPDKDPLRQPAPEPEAPKAVYYYHTDHLGTPQALTDEQGLLALEMDYQAWGQAREVIADAAGKAGIRNPFRFQGQYHDDESGLHYNRHRYYDPEIGRFISRDPIGLKGGYNLFAYAPNTIEWVDPFGLTKLRETDPKARSLSNVQTRCWYLREESKIGYQIDCTKPIKQQARQAARLRNEARIRARLLMADREKAIALHQSDPNLTFKELMALKENKKGLTGKDAYQDIVDSASKSRQSVNKALLEGVDCDKVLEGILEHHHHHH	soluble
